From PMC5308896, “A conformational switch regulates the ubiquitin ligase HUWE1” (eLife, 2017) come the findings set out here.

In experiment [1] the target is T1, HUWE1 (3759–4374) (human, UniProt Q7Z6Z7 3759-4374).
T1 construct: also called extended C-terminal HUWE1 fragment; source: LOBSTR RIL cells, purified (IMAC, gel filtration)
T1 sequence (looked up): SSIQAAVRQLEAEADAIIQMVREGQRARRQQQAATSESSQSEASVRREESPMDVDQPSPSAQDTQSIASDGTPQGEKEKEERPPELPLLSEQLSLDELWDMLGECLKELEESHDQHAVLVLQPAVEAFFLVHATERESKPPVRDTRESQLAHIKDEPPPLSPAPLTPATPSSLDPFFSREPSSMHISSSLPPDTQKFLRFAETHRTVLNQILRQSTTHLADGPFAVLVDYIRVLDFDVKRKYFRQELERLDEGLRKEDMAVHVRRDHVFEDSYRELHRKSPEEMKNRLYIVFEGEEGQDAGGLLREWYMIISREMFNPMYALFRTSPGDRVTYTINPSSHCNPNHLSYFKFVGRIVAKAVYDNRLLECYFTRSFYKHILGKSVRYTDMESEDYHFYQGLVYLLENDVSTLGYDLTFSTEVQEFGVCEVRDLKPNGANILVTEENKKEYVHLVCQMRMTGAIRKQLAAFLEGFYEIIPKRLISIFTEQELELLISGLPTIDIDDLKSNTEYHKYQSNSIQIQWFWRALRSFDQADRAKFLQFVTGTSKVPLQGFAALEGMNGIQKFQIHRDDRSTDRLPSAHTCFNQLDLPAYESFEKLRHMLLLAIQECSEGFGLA
Kind of experiment: fluorescence polarisation; apparent KD; constant 1 μM TAMRA-labelled p14ARF (45–64) peptide titrated with HUWE1 protein; 25°C, 20 mM HEPES pH 8.0, 150 mM NaCl, 10% glycerol, 1 mM EDTA, 5 mM DTT; three independent experiments. To be noted: both partners purified. (In general: Fluorescence polarisation rises when a labelled molecule tumbles more slowly, as on binding a larger partner.)

For experiment [2], the target named is T2, HUWE1 (3951–4374), untagged (human, UniProt Q7Z6Z7 3951-4374).
T2 construct: Monomer MW 49.752 kDa (AUC methods); source: LOBSTR RIL cells, purified (IMAC, TEV protease cleavage, second IMAC, gel filtration); not shown: His6, N-terminal, cleaved
T2 sequence (looked up): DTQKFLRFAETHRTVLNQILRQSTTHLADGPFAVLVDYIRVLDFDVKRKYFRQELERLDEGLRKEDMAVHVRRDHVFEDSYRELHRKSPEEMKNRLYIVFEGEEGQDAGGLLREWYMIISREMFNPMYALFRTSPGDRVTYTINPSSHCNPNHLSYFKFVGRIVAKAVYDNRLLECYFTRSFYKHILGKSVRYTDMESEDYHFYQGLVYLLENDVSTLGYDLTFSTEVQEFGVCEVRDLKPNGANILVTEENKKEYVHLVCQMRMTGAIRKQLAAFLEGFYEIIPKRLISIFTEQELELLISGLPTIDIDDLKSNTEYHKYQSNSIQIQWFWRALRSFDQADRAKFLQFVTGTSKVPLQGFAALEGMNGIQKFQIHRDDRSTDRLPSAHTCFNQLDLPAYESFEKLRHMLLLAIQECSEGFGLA
The experiment is described as above. To be noted: both partners purified.

Ends that are not written are not given here.

B1: fluorophor-labeled p14ARF-derived peptide (residues 45–64), TAMRA-labelled (peptide)
peptide: LVLMLLRSQRLGQQPLPRRPK(TAMRA)
notes: p14ARF (alternative reading frame product of CDKN2A), human, residues 45–64; additional lysine residue at the C-terminus that carries the TAMRA label (told in words); also called p14ARF-peptide; p14ARF (45-64); source: synthetic peptide, bought: Elim Biopharm
Take B1: the figures for the Kd in experiment [1] and in experiment [2] were 7.7 ± 0.4 µM and 280 ± 40 µM, respectively.
